Data as given in PMC3707082.

Tests used:
[1] = biological target: C-terminally truncated PTEN (t-PTEN, aa 1-378) (human) (UniProt P60484)
[2] = biological target: C-terminally truncated PTEN (t-PTEN, aa 1-378) (human) (UniProt P60484); remark: listed apart in the source

## synthetic C-tail tetraphosphorylated peptide (aa 379-403, 4p-25mer) (from UniProt P60484 379-403)
[1]
  extent of inhibition of the lipid phosphatase activity of t-PTEN by 4p-25mer with soluble PIP3 substrate: > 95%
[2]
  inhibition of t-PTEN soluble PIP3 (diC6-PIP3) phosphatase activity by the peptide in trans, malachite green phosphate release, IC50: 1000 nM
